This is an account of results in patent publication US20200399358A1 (Sanofi, published 2020).

Numbering of substitutions follows the chain as printed.

Assay [1] deals with T1, murine TGF-β1 (mouse, UniProt P04202 279-390). As to the kind of experiment: cell-based or functional assay.
Assay [2] has as its target T2, human TGF-β3 (human, UniProt P10600 301-412).
T2 sequence (looked up): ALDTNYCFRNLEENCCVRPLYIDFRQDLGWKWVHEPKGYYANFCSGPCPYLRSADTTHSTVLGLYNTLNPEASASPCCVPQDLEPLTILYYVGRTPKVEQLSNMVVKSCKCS
As to the kind of experiment: cell-based or functional assay.

Assay [3] concerns the target T3, human TGF-β2 (human, UniProt P61812 303-414).
T3 sequence (looked up): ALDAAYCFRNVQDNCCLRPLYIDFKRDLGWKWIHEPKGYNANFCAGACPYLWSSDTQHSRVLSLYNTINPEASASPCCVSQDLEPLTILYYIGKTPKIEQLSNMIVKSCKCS
As to the kind of experiment: cell-based or functional assay.

In assay [4] the target is T4, human TGF-β1 (human, UniProt P01137 279-390). As to the kind of experiment: cell-based or functional assay.
For assay [5], the target named is T5, murine TGF-β2 (mouse, UniProt P27090 303-414).
T5 sequence (looked up): T3 sequence (looked up) with S59T, R60K, K94N
As to the kind of experiment: cell-based or functional assay.

Assay [6] addresses T1, murine TGF-β1. As to the kind of experiment: SPR (Biacore T200), Ab1 injected over immobilized TGF-β homodimer, 1:1 model. As to the method:
(§1) The affinity of Ab1 for all human and murine TGF-β isoforms was determined by surface plasmon resonance on a Biacore T200 Biosensor instrument (GE Healthcare) using a dextran-coated carboxy-methylated (CM5) series S chip. Ab1 at a series of concentrations (1.11, 3.33, 10, and 30 nM) was injected onto immobilized recombinant TGF-β to measure the binding interaction in real time. The TGF-β homodimers were immobilized at a low density to reduce avidity effects. Injections were performed in triplicate and the binding assay was repeated three times. The data from the kinetic experiments were processed using the Biacore T200 Biaevaluation v2.0 software. Resulting sensorgrams were zeroed, aligned, double referenced, and cropped for curve fitting analysis using a 1:1 binding model to determine association rate constant (kₐ), dissociation rate constant (kd), and equilibrium dissociation constant (KD).

Assay [7] addresses T3, human TGF-β2. The description is as above. The protocol: as §1
The target of assay [8] is T5, murine TGF-β2. The assay is described as above. The protocol: as §1
Assay [9] concerns the target T4, human TGF-β1. The assay is described as above. The protocol:
as §1

For assay [10], the target named is T2, human TGF-β3. The description is as above. As to the method:
as §1

The target in assay [11] is T4, human TGF-β1. As to the kind of experiment: cell-based or functional assay. This is another data set of the same source.

T4 sequence (P01137 279-390 limits assumed): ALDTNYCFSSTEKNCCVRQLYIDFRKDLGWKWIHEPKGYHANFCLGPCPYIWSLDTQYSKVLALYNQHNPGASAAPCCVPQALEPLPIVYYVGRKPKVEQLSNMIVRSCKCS
T1 sequence (P04202 279-390 limits assumed): as the sequence (P01137 279-390 limits assumed) above, with A75S counted along it

B1: 1D11 (antibody, mouse IgG1, kappa, V domains shown)
VH: HVQLQQSGPELVRPGASVKLSCKASGYIFITYWMNWVKQRPGQGLEWIGQIFPASGSTNYNEMFEGKATLTVDTSSSTAYMQLSSLTSEDSAVYYCARGDGNYALDAMDYWGQGTSVTVSS
VL: NIVLTQSPASLAVSLGQRATISCRASESVDSYGNSFMHWYQQKSGQPPKLLIYLASNLESGVPARFSGSGSRTDFTLTIDPVEADDAATYYCQQNNEDPLTFGAGTKLELKR
On to B1, for which the “EC50 (read off the curve); neutralisation, Mv 1 Lu proliferation with 1 ng/ml TGF-β” value (shortened to “EC50 (read off the curve)”) is approximately 4 µg/mL with murine TGF-β1 [1], approximately 0.4 µg/mL with human TGF-β3 [2], approximately 6 µg/mL with human TGF-β2 [3] and approximately 7 µg/mL with human TGF-β1 [4].

B2: Ab1 (antibody, human IgG4 S228P, kappa)
heavy: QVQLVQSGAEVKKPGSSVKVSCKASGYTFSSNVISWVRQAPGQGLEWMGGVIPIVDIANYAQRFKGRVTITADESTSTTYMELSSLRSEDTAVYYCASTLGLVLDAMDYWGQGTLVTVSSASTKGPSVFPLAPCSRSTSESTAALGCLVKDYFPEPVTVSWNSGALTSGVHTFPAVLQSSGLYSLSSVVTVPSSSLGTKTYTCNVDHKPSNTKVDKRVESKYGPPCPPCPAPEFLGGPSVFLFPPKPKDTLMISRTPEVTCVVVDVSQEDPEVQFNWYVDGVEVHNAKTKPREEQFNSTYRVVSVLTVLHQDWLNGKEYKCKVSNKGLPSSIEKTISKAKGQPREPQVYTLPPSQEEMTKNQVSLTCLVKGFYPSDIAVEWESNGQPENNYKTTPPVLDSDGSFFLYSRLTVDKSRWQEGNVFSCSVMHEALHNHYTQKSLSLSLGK
light: ETVLTQSPGTLSLSPGERATLSCRASQSLGSSYLAWYQQKPGQAPRLLIYGASSRAPGIPDRFSGSGSGTDFTLTISRLEPEDFAVYYCQQYADSPITFGQGTRLEIKRTVAAPSVFIFPPSDEQLKSGTASVVCLLNNFYPREAKVQWKVDNALQSGNSQESVTEQDSKDSTYSLSSTLTLSKADYEKHKVYACEVTHQGLSSPVTKSFNRGEC
notes: Human IgG4 with proline at position 228 (EU numbering); also called anti-TGF-β antibody Ab1
For B2, the “EC50 (read off the curve)” value was approximately 0.6 µg/mL in the assay with murine TGF-β1 [1], approximately 9 µg/mL with murine TGF-β2 [5], approximately 2 µg/mL with human TGF-β3 [2] and approximately 4 µg/mL with human TGF-β2 [3]. Besides, the Kd in the assay with murine TGF-β1 [6] turned out to be 2.8 nM; with human TGF-β2 [7], 3 nM; with murine TGF-β2 [8] it was 1.88 nM; in the assay with human TGF-β1 [9], 1.48 nM; with human TGF-β3 [10], 1.65 nM. Further, the koff in the assay with murine TGF-β1 [6] turned out to be 0.000835 s⁻¹; in the assay with human TGF-β2 [7] it was 0.000823 s⁻¹; with murine TGF-β2 [8], 0.000645 s⁻¹; in the assay with human TGF-β1 [9] it was 0.000343 s⁻¹; in the assay with human TGF-β3 [10] it was 0.000372 s⁻¹. The kon was determined as 298000 M⁻¹ s⁻¹ in the assay with murine TGF-β1 [6]; 286000 M⁻¹ s⁻¹ with human TGF-β2 [7]; 348000 M⁻¹ s⁻¹ in the assay with murine TGF-β2 [8]; 311000 M⁻¹ s⁻¹ with human TGF-β1 [9]; 223000 M⁻¹ s⁻¹ with human TGF-β3 [10]. Moreover, in the assay with human TGF-β1 [11], the “fold change of luciferase activity against isotype control Ab (639440 RLU)” value came out at 1.45 fold. For the same molecule, the “fold change of luciferase activity against no Ab control (638866 RLU)” value with human TGF-β1 [11] is 1.45 fold.

B3: fresolimumab (antibody, human IgG4, kappa)
heavy: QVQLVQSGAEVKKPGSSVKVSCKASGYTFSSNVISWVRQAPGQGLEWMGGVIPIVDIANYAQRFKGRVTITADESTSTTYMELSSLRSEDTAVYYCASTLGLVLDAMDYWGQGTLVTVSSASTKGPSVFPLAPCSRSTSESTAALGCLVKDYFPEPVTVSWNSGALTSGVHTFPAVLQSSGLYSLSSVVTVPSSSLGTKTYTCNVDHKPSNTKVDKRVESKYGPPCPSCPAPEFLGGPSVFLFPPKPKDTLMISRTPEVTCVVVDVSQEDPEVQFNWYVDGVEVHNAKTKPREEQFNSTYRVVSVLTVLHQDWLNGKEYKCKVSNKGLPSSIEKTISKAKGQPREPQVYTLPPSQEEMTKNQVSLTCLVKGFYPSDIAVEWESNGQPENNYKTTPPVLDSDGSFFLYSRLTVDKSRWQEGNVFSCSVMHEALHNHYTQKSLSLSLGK
light: B2 light
For the molecule B3, the “EC50 (read off the curve)” value in the assay with murine TGF-β1 [1] was approximately 0.6 µg/mL; with murine TGF-β2 [5], approximately 9 µg/mL; with human TGF-β3 [2], approximately 2 µg/mL; with human TGF-β2 [3] it was approximately 5 µg/mL.
